Source: the nanobody polyreactivity screen of Harvey et al. (2022)

Experiment: yeast display, Sf9 membrane polyspecificity reagent, FACS + sequencing; frameworks hold sequencing errors
Outline: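 After 36–48 hours of galactose induction, yeast (Saccharomyces cerevisiae BJ5465) displaying a synthetic nanobody library were stained at 4 °C for 1 hour with 10% biotinylated, detergent-solubilized Sf9 membrane reagent. Streptavidin microbeads enriched the stained cells before FACS sorting into low and high (top ~1%) gates on anti-HA and streptavidin fluorescence. Each clone's polyreactivity label reflects its gate of origin.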

Row | Sequence | polyreactivity (PSR sort gate)
1 | QVQLVESGGGLVQAGGSLRLSCAPSGFTFYKNAMGWYRQAPGKERELVAAITSSGGSTYYADSVKGRFTISRDNAKNTVYLQMNSLKPEDTAVYYCAAYPQAYIADYDYWGQGTQVTVSS | low polyreactivity
2 | QVQLVESGGGLDQAGGSLRLSCAASGFTFWRYAMGWYRQAPGKERELVAAISWSGGSTYYADSVKGRFTISRDNAKNTVYLQMNSLKPEDTAVYYCTAQYGSRSYRYGYWGQGTQVTVSS | high polyreactivity
3 | QVQLVESGGGLVQAGGSLRLRCAASGFTFYWYAMGWYRQAPGKEREIVAAIDQSGGSTYYADSVKGRFTISRDNAKNSVYLQMNSLKQEDTAVYYCAARYILWDGDSWTEFDYWGQGTQVTVSS | low polyreactivity
4 | QVQLVESGGGLVQAGGSLRLSCAASGFTFGNYAMGWYRQAPGKERELVAVISRSGGNTYYADSVKGRFTISRDNAKNTVYLQMNSLKPEDTAVYYCAATLVGKVFRRFDYWGQGTQVTVSS | high polyreactivity
5 | QDQLVESGPGLVQAGGSLRLSCAPSGRIFTVYAMGWYRQAPGKERELVAAIDWSDGSTYYADSVKGRFTISRDNAKNTVYLHMNSLKPEATAVYYCAAETYWVVEYDYWGQGTQVTVSS | high polyreactivity
6 | QVQLVESGGGLVQAGGSHRISCAASGFIFPYYAMGWYRQAPGKERELVAAITSGGSTNYADSVKGRFTISRDNAKNTVYLQMTSLKPEDTAVYYCDKRLKRWSVYCRYDYWGQGTQVTVSS | high polyreactivity
7 | QVQLVESGGGLVQAGGSLRLSCAASGSIFHPYGMGWYRQAPGKERELVAAITSSGGDKYYADSVKGRFTISRDNAKNTVYLQMNSLKPEDTAVYYCAATGLPGYYAYDYWGQGTQVTVSS | low polyreactivity
8 | QVQLVESGGGLVQAGGSLRLSCAASGYTFGTYAMGWYRQAPGKERELVAAITWRGGSTYYADSVKGRFTISRDNAKYTFYLQMNSLIPEDTAVYYCNADIKQRSDRYDYWGQGTQVTVSS | high polyreactivity
9 | QVQLVESGGGLVQAGGSLRLSCAASGRIFWDNDMGWYRQAPGKERELVAAISRRGGSTSYADSVKGRFTISRDNAKNTVYLQMYSLKPEDTAVYYCIVRTRWTRVRRYDYWGQGTQVTVSS | high polyreactivity
10 | QVQLVESGGGLVQAGGSLRLSCAASGSIFAPYAMGWYRQAPGKERELVATISSIGTSTYYADSVKGRFTISRDNAKNTVYLQMNSLKPEDTAVYYCAADQSGGYPDNYWGQGTQVTVSS | low polyreactivity
11 | QVQLVESGGGLVQAGGSLRLSCAASGSTFYNYAMGWYRQAPGKERELVAAITSSGGSTYYADSVKGRFTISRDNAKNTVYLQMNSLKPEDTAVYYCAATRRDRRKSFTYRYDYWGQGTQVTVSS | high polyreactivity
12 | QVQLVESGGGLVQAGGSLRLSCAASGRIFSIYGMGWYRQAPGKERELVAVISGSVGITYYADSVKGRFTISRDNAKNTVYLQMNSLKPEDTAVYYCNAKFRRRKYDYWGQGTQVTVSS | high polyreactivity
13 | QVQLVESGGGLVQAGGSLRLSCAASGIMFSSYAMLWYRQAPGKERELFAAISWSGGSTYYADSVKLRFTISRDNAKNTVYLQMNSLKPEDTAVYYCAAKSHWYKRGYWGQGTQVTVSS | low polyreactivity
14 | QVQHVESVGGLVQAGGSLRLSSATSGSIFITNAMGCYRQPPGKESELVAAIRDSGDRTYYADSVKGRFTISRDNGKNNVSLQMNSLKPEDTAVYYCNARCQEPLNYDYWGQGTQGTVSS | low polyreactivity
15 | QVQLVESGGGLVQAGGSLRLSCAASGGTFLYYAMGWYRQAPGKETELVAAISRGGSTHYADSVKGRFTISRDNAKNTVYLQMNSLKPEDTAVYYCAVDGGEFSSYGYWGQGTQVTVSS | low polyreactivity
16 | QVQLVESGGGLVQAGGSRRLSCAASGRIFRGYAMGWYRQAPGKERELVAAISASGGSTYYADSVKGRYTISRDIAKNTVYLLMISLKQVDTAVYYCATGGYARYDFWGQGTQVTVSS | high polyreactivity
17 | QVQLVESGGGLVQAGGSLRLSCAASGNIFSYNAMGWYRQAPGKEREFVAAITFSSDRTYYADSVKGRFTISRDNAKNTVYLQMNSLKPEDTAVYYCAADTRYINYKRYYYWGQGTQVTVSS | high polyreactivity
18 | QVQHVESRGGLVQAGGSLRLSCAASGRTFSRNAMGRYRQAPGKERELVATITSDGSTNYADSVKGRFTISRDNAKNTVYLQMNSLKPEDTAVYYCAAGEQSSIIGAHDYWGQGTQVTVSS | low polyreactivity
19 | QVQLQESGGGLVQAGGSLRLSCAASGYISTFSSEMGWYRQAPGKERELVASIAPGCTTSYADSVKGRFTISRDKAKNTVYLQMNILKPEDTAVYFCAVVYTVPASFGYWGQGTQVTVIS | high polyreactivity
20 | QDQLVDSGGGLVQAGGSLRLSCAASGSTGTYMGWYRQAPGKERELVAAIDNICDNTYNADSVKGRFTISRDNAKNTVYLQMNSLIPEDSAVYYCAADYYVYYPWLFEYDYWGQGTQVTVSS | low polyreactivity
21 | QVQLVESGGGLVQAGGSLRLSCAASGSIIWRNAMGWYSQAPGKERELVAAISYSGGSTYYADSVKGRFTISRDNAKNTVDLQMNSLKPEDTAVYYCAADYTEVLEYDYWGQGTQVTVSS | low polyreactivity
22 | QVQLVESGGGLVQAGGSLRLSCAASGNIFGLNSMGWYRQAPGIDRELVSAISKSGGSTFYADSVKGRFKISRDNAKNTVYLQMNSLKPEDTAVYYCAARWNGARPNHTYGYWGQGTQVTVSS | high polyreactivity

Row | Sequence | polyreactivity (PSR sort gate)
23 | QVQLVESGGGLVQAGGSLRLSCAASGLIFVVYAMGWYRPAPGKERELVADISSGGRTSYADSVKGRFTISRDNAKNTVYLQMNSLKPEDTAVYYCNAYPVFNQYYGWRYDYWGQGTQVTVSS | low polyreactivity
24 | QVQLVESGGGLVQEGGSLRLSCAASGRILSPNAMGWYRQAPGKERELVATITRSGGSTYYADSVKGRFTISRDNAKNTVYLQMNSLKPEDTAVYYCAKLHTYPWIHDYWGQGTQVTVSS | low polyreactivity
25 | QVQLVESGGGLVQAGGSRRLSCAAAGISFGWYSMGWYRQAPGKERELVATISQSGTSTYYADSVKGRFTISRDNAKNTVYLQMNSLKPEDTAVYYCAADYIRGYYYRVPLEVDYWGQGNQVTVSS | low polyreactivity
26 | QVQLVESGGGLVQAGGSLRLSCAASGSTFRRNAMGWYRQAPGKERELLAAISRRGGSTYYADSVKGRFTISRDNAKNTVYLQMNSLKPEDTAVYYCASAVTTYSQGQGVYSWGQGTQVTVSS | high polyreactivity
27 | QVQLVESGGGLVQAGGSLRLSCAASGRTFWRYVMGWYRQAPGKERELVASITRSGGTTNYADSVKGRFTISRDIAKNTVYLQMNSLKPEDTAVYYCNARTVYSWSREYNYWGQGTQVTVSS | high polyreactivity
28 | QVQLEESGGGLVQAGGSLRLSCAASGITFDFNAKGWYRQAPGTERELVAAIRNRGGSTYYADSVKGRFTISRDNAKNTVYLQMHSLKPVDTAVYYCNVDLWPFVYSWWSYDYWGQGTQVTVSS | high polyreactivity
29 | QVQLVESGGGLVQAGGSLRLSCAASGRIFEHNAMGWYRQAPGKEREFVAAISSSGGSTYYADSVKGRITISRDNAKNTVYLQMNSLKPVDTAVYYCNAGSTYYERNYWGQGTQVTVSS | low polyreactivity
30 | QVQLVESGGGLVQAGGSLRLSCAASGRIQYNAMGWYSQAPGKEREFGAAISWSGGTTYYADSVKGRFTISRDTAKNTVYLQMNSLKPEDTAVYYCATPYTHWGQGTQVTVSS | high polyreactivity
31 | QVQLVESGGGLVQAGGSLRLSCAASGRTFYGYAMGWYRQAPGKERELVATITRRGGSTYYADSVKGRFTISRDNAKNTVYLQMNSLKPEDTAVYYCARQGDQYYRDGDDYWGQGTQVTVSS | high polyreactivity
32 | QVQLVESGGGLVQAGGSLRLSCAASGSIFRWYAMGWYRQAPGKERELVAAITWSASRTYYADSVKGRFTISRDTAKNTVYLQMNSLKPEDTAVYYCAADHDGPYAGYDSWRQGTQVTVSS | low polyreactivity
33 | QVQLVESGGGLVQAGGSLRLSCAASGFTFLRYAMGWYRQAPGKERELVAAITGSGGSTYYADSVKGRFTISRDNAKNTVYLQMNSLKPEDTAVYYCSIVSKFTGDYGYWGQGTQVTVSS | high polyreactivity
34 | QVQHVESGGGLVQAGGSLRLTCAATGFTFEKNAMGWYRQAPGKERELVAAISRGGSTYADSVKGRFTISRDNAKNTVYLQMNSLKPEDTAVYYCAADTVYIFSSAINGEFVFWGQGTQVTVSS | low polyreactivity
35 | QVQLVESGGGLVQAGGSLRLSCAASGSIFQSYDMGWSRQAPGKERELVAAITRSGGRTYYAASVKGRFTISRDNAKNTVYLQMNSLKPEDTAVYYCAAFGWGYGYWGQGTQVTVSS | high polyreactivity
36 | QVQLVESGGGLVQAGGSLRLSCAASGFTFHWYVMGWYRQAPGKERELVAAISRNGGRTYYADSVKGRFTISRDNAKNTVYLQMNSLKPEDTAVYYCATDYGWLYINSIWEYDYWGQGTQVTVSS | high polyreactivity
37 | QVQLVESGRGLVQAGGSLRISCAASGSIFRVNAMGWYRQAPGKERELVASISKTGTRTYYADSVKGRFTISRDNAKITVYLQMNSLKPEDTAVYYCAADKPRREYDYWGQGTQVTVSS | low polyreactivity
38 | QVQLVESGGGLVQAGGSLRLSSAASGSTIYYYAMGLYRQAPGKEREFVATITQSGGSTYYADSVKGRFTISRDNAKNTVYLQMNSLKPEDTAVYYCAADSWEVDEADIYNSWGQGSQVTVSS | low polyreactivity
39 | QVQLVESGRGLVQAGGSLRLSCAASGRIIGYYTMGWYRQAPGKERELVAAITRDGGSTYYADSVKGRFTISRDNAKNTVYLQMNSLKPEDTAVYYCTAASQSRYFYWGQGTQVTVSS | high polyreactivity
40 | QVQLVESGGGLVQAGGSLRLTFAASGSTFDYYAMGWYRQAPGKERELVAGITSDGSTYYADSVKGRFTISRDNAKNTVYLQMNSLKPEDTAVYYCDVDVDPVFYTTYYYSYYYWGQGTQVTVSS | low polyreactivity
41 | QVQLVVSGGGLVQAGGSLRLSCAASGYIFVYNAMGWYRQAPGKERELVSAITDGGGSTYADSVKGRFTISRDNAKNTVYLQMNSLKPEDTAVYYCAALYSDTTWYVLYYYWGQGTQVTVSS | low polyreactivity
42 | QVQLVESGGGLVQAGGSLRLSCAASGFTFSTNAMAWYRQAPGKERELVAAITSSGGSTYYADSVKGRFTISRDNAKNTVYLQMNSLKPEDTAVYYCATGPSQVGGDYWGQGTQVTVSS | high polyreactivity
43 | QVQLVESGGGLVQAGGSLRLCCAASGSTFGYYAMGWYRQAPGKDRELVAVITWNGGGTYYADSVKGRFTISRDNAKNTVYLQMNSLKPEDTAVYDCAADASLYTDEYDYWGQGTQVTVSS | low polyreactivity
